Test results published in patent US20240158517A1 (HIFIBIO HK, published 2024).

Legend:
human CXCR5 [1] = biological target: T1, human CXCR5 (human, UniProt P32302 1-372); assay: binding to hCXCR5, Exp 2 (assay not given)
T1 construct: whole, on cells; Always presented on cells; one entry is used for all cell lines; also called hCXCR5; C-X-C chemokine receptor type 5
T1 sequence (looked up): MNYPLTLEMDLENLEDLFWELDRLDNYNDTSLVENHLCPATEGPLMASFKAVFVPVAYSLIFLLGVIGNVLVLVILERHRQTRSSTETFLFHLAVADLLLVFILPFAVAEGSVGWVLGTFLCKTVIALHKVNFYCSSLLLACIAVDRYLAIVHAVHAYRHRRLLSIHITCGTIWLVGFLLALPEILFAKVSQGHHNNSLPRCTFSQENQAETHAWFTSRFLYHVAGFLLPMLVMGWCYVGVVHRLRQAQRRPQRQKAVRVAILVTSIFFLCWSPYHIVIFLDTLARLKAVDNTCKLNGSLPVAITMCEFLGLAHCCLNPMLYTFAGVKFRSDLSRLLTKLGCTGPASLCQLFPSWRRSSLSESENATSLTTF

human CXCR5 [2] = biological target: T1, human CXCR5; assay: binding to hCXCR5, Exp 1 (assay not given)
human CXCR5 [3] = biological target: T1, human CXCR5; assay: binding to DX002 cells expressing CXCR5
human CXCR5 [4] = biological target: T1, human CXCR5; assay: flow cytometry on adherent DX002 cells expressing CXCR5, MFI
human CXCR5 [5] = biological target: T1, human CXCR5; assay: flow cytometry on Raji cells, binding percentage, antibody at 1 nM and 0.1 nM
Method: Binding properties of these 36 humanized variants were tested in binding assay to Raji cells at two different concentrations, 1 nM and 0.1 nM.

human CXCR5 [6] = biological target: T1, human CXCR5; assay: flow cytometry on an adherent stable cell line expressing hCXCR5, MFI normalized on the benchmark MFI
Method: In order to test the binding capacity to CXCR5, six chimeric monoclonal antibodies were tested in binding assay using adherent stable cell line expressing the target antigen hCXCR5.

murine CXCR5 = biological target: T2, murine CXCR5 (mouse, UniProt Q04683 1-374); assay: flow cytometry on cells transiently transfected with murine CXCR5
T2 construct: whole, on cells; also called mouse CXCR5 ortholog
T2 sequence (looked up): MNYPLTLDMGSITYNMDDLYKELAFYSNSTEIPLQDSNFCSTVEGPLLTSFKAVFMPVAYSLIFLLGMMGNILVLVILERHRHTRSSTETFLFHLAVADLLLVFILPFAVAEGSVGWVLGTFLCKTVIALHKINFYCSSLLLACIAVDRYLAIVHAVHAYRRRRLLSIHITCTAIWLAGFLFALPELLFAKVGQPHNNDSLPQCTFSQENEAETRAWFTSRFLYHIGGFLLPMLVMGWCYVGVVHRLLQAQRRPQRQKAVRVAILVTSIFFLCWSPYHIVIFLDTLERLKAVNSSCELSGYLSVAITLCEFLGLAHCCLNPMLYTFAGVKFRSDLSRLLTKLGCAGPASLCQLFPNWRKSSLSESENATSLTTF

human CXCR3 = biological target: T3, human CXCR3 (human, UniProt P49682 1-368, limits assumed); assay: flow cytometry (MFI) on hCXCR3
T3 construct: also called hCXCR3
T3 sequence (looked up): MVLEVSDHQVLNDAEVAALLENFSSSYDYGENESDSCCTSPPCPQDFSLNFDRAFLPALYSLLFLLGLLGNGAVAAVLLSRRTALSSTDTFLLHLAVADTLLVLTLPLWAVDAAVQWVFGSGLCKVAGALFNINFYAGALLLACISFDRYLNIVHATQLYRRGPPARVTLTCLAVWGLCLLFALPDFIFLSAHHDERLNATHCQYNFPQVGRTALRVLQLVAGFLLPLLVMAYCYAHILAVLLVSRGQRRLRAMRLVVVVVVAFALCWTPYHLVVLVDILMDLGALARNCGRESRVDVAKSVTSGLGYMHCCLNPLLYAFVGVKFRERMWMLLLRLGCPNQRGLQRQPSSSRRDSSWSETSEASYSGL

B1: HFB2-4hz14-hG1DE (antibody, V domains shown)
VH: QVQLQESGPGLVKPSETLSLTCTVSGFSLTSYGVSWVRQPPGKGLEWIGVIWGDGSTNYNPSLKSRVTISKDTSKNQVSLKLSSVTAADTAVYYCARVVYWGQGTLVTVSS
VL: DIVMTQSPLSLPVTPGEPASISCRSSQSLLHSNGYNYLYWFLQKPGQSPQLLIYRGSNRASGVPDRFSGSGSGTDFTLKISRVEAEDVGVYYCMQHLQYPYTFGGGTKVEIK
notes: Humanized (VH3/VL1b), human IgG1 with S239D/I332E (hG1DE)
- EC50 (human CXCR5 [1]): 0.1 nM
- EC50 (human CXCR5 [2]): 0.4 nM

B2: HFB2-4hz38hG1DE (antibody, V domains shown)
VH: QVQLQESGPGLVKPSETLSLTCTVSGFSLTSYGVSWVRQPPGKGLEWIGVIWGDGSTNYNPSLKSRVTISKDTSKNQVSLKLSSVTAADTAVYYCARVVYWGQGTLVTVSS
VL: DIVMTQSPDSLAVSLGERATINCRSSKSLLHSNGKTYLYWFQQKPGQSPKLLLYRMSNLASGVPDRFSGSGSGTDFTLTISSLQAEDVAVYYCMQHLEYPYTFGQGTKLEIK
notes: Humanized (VH3/VL7) in hG1DE format
- EC50 (human CXCR5 [3]): 0.106 nM
- EC50 (human CXCR5 [4]): 0.0878 nM

B3: HFB2-4hz37hG1DE (antibody, V domains shown)
VH: QVQLQESGPGLVKPSETLSLTCTVSGFSLTSYGVSWVRQPPGKGLEWIGVIWGDGSTNYNPSLKSRVTISKDTSKNQVSLKLSSVTAADTAVYYCARVVYWGQGTLVTVSS
VL: EIVMTQSPATLSVSPGERATLSCRSSKSLLHSNGKTYLYWFQQKPGQAPRLLIYRMSNLASGIPARFSGSGSGTEFTLTISSVQSEDVAVYYCMQHLEYPYTFGQGTKLEIK
notes: Humanized (VH3/VL6) produced in hG1DE format (human IgG1, S239D/I332E)
- EC50 (human CXCR5 [3]): 0.099 nM
- EC50 (human CXCR5 [4]): 0.0785 nM

B4: HFB2-4hz12-hG1DE (antibody, V domains shown)
VH: QVQLQESGPGLVKPSETLSLTCTVSGFSLTSYGVSWVRQPPGKGLEWIGVIWGDGSTNYNPSLKSRVTISKDTSKNQVSLKLSSVTAADTAVYYCARVVYWGQGTLVTVSS
VL: DIQMTQSPSSLSASVGDRVTITCRSSKSLLHSNGKTYLYWFQQKPGKAPKLLIYRMSNLASGVPSRFSGSGSGTDFTLTISSLQPEDFATYYCMQHLEYPYTFGGGTKVEIK
notes: Humanized (VH3/VL4), human IgG1 with S239D/I332E (hG1DE); also called HFB2-4hz12hIgDE
- EC50 (human CXCR5 [1]): 0.3 nM
- EC50 (human CXCR5 [2]): 1.2 nM

B5: HFB2-VH6VL7 (antibody, V domains shown)
VH: QVQLQESGPGLVKPSGTLSLTCAVSGFSLTSYGVSWVRQPPGKGLEWIGVIWGDGSTNYNPSLKSRLTISKDKSKNQVSLKLSSVTAADTAVYYCARVVYWGQGTLVTVSS
VL: DIVMTQSPDSLAVSLGERATINCRSSKSLLHSNGKTYLYWFQQKPGQSPKLLLYRMSNLASGVPDRFSGSGSGTDFTLTISSLQAEDVAVYYCMQHLEYPYTFGQGTKLEIK
- binding result (human CXCR5 [5]): binds

B6: HFB2-VH6VL4 (antibody, V domains shown)
VH: QVQLQESGPGLVKPSGTLSLTCAVSGFSLTSYGVSWVRQPPGKGLEWIGVIWGDGSTNYNPSLKSRLTISKDKSKNQVSLKLSSVTAADTAVYYCARVVYWGQGTLVTVSS
VL: DIQMTQSPSSLSASVGDRVTITCRSSKSLLHSNGKTYLYWFQQKPGKAPKLLIYRMSNLASGVPSRFSGSGSGTDFTLTISSLQPEDFATYYCMQHLEYPYTFGGGTKVEIK
- binding result (human CXCR5 [5]): binds

B7: HFB2-4hz15-hG1DE (antibody, V domains shown)
VH: QVQLQESGPGLVKPSETLSLTCTVSGFSLTSYGVSWVRQPPGKGLEWIGVIWGDGSTNYNPSLKSRVTISKDTSKNQVSLKLSSVTAADTAVYYCARVVYWGQGTLVTVSS
VL: DIVMTQSPLSLPVTPGEPISLSCRSSKSLLHSNGKTYLYWFLQKPGQSPQLLLYRMSNLASGVPDRFSGSGSGTDFTLKISRVEAEDVGVYYCMQHLEYPYTFGGGTKLEIK
notes: Humanized (VH3/VL1c), human IgG1 with S239D/I332E (hG1DE)
- EC50 (human CXCR5 [1]): 0.05 nM
- EC50 (human CXCR5 [2]): 0.6 nM

B8: HFB2-4hz39hG1DE (antibody, V domains shown)
VH: QVQLQESGPGLVKPSGTLSLTCAVSGFSLTSYGVSWVRQPPGKGLEWIGVIWGDGSTNYNPSLKSRLTISKDKSKNQVSLKLSSVTAADTAVYYCARVVYWGQGTLVTVSS
VL: EIVMTQSPATLSVSPGERATLSCRSSKSLLHSNGKTYLYWFQQKPGQAPRLLIYRMSNLASGIPARFSGSGSGTEFTLTISSVQSEDVAVYYCMQHLEYPYTFGQGTKLEIK
notes: Humanized (VH6/VL6) in hG1DE format
- EC50 (human CXCR5 [3]): 0.26 nM
- EC50 (human CXCR5 [4]): 0.232 nM

B9: HFB2-6-hG1 (antibody, V domains shown)
VH: QIQLQQSGPELVEPGASVKLSCKASGYTFTDYTIHWVKQSPGQGLEWIGWIYPGSGNIKYNDKFKGKATMTADKSSSTAYMQLSSLTSEDSAVYFCARGLRREFAYWGQGTLVTVSA
VL: DIVMTQAAFSNPVTLGTSASISCRSSKSLLHSNGITYLYWYLQKPGQSPQLLIYQMSNLASGVPDRFSSSGSGTDFTLRISRVEAEDVGVYYCAQSLELPLTFGAGTKLELK
notes: Mouse-human chimeric antibody, human IgG1 constant region
- EC50 (human CXCR5 [6]): 0.5 nM
- binding result (murine CXCR5): no binding (tested: about 150 nM)
- binding result (human CXCR3): no binding (tested: about 150 nM)

B10: HFB2-VH10VL7 (antibody, V domains shown)
VH: QVQLVQSGAEVKKPGASVKVSCKASGFSLTSYGVSWVRQAPGQGLEWMGVIWGDGSTNYAQKLQGRVTMTKDTSTSTAYMELRSLRSDDTAVYYCARVVYWGQGTLVTVSS
VL: DIVMTQSPDSLAVSLGERATINCRSSKSLLHSNGKTYLYWFQQKPGQSPKLLLYRMSNLASGVPDRFSGSGSGTDFTLTISSLQAEDVAVYYCMQHLEYPYTFGQGTKLEIK
- binding result (human CXCR5 [5]): binds

B11: HFB2-4-hG1 (antibody, V domains shown)
VH: QVQLKESGPGLVAPSQSLSITCTVSGFSLTSYGVSWVRQPPGKGLEWLGVIWGDGSTNYHSGLISRLSISKDNSKSQVFLKLNSLQSDDTATYYCARVVYWGQGTLVTVSA
VL: DIVMTQAAPSVPVTPGESISISCRSSKSLLHSNGKTYLYWFLQRPGQSPQLLLYRMSNLASGVPDRFSGSGSGTAFTLRISRVEAEDVGVYYCMQHLEYPYTFGGGTKLEIK
notes: Mouse-human chimeric antibody, human IgG1 constant region; also called parental
- EC50 (human CXCR5 [6]): 0.924 nM
- binding result (murine CXCR5): no binding (tested: about 150 nM)
- binding result (human CXCR3): no binding (tested: about 150 nM)

B12: HFB2-VH8VL4 (antibody, V domains shown)
VH: QVQLVESGGGVVQPGRSLRLSCAVSGFSLTSYGVSWVRQAPGKGLEWLGVIWGDGSTNYHSGLISRLTISKDNSKNTVYLQMNSLRAEDTAVYYCARVVYWGQGTLVTVSS
VL: DIQMTQSPSSLSASVGDRVTITCRSSKSLLHSNGKTYLYWFQQKPGKAPKLLIYRMSNLASGVPSRFSGSGSGTDFTLTISSLQPEDFATYYCMQHLEYPYTFGGGTKVEIK
- binding result (human CXCR5 [5]): binds

B13: HFB2-VH8VL6 (antibody, V domains shown)
VH: QVQLVESGGGVVQPGRSLRLSCAVSGFSLTSYGVSWVRQAPGKGLEWLGVIWGDGSTNYHSGLISRLTISKDNSKNTVYLQMNSLRAEDTAVYYCARVVYWGQGTLVTVSS
VL: EIVMTQSPATLSVSPGERATLSCRSSKSLLHSNGKTYLYWFQQKPGQAPRLLIYRMSNLASGIPARFSGSGSGTEFTLTISSVQSEDVAVYYCMQHLEYPYTFGQGTKLEIK
- binding result (human CXCR5 [5]): binds

B14: HFB2-4hz41hG1 (antibody, V domains shown)
VH: QVQLVESGGGVVQPGRSLRLSCAVSGFSLTSYGVSWVRQAPGKGLEWLGVIWGDGSTNYHSGLISRLTISKDNSKNTVYLQMNSLRAEDTAVYYCARVVYWGQGTLVTVSS
VL: DIVMTQSPDSLAVSLGERATINCRSSKSLLHSNGKTYLYWFQQKPGQSPKLLLYRMSNLASGVPDRFSGSGSGTDFTLTISSLQAEDVAVYYCMQHLEYPYTFGQGTKLEIK
notes: Humanized, human IgG1 (hG1); also called HFB2-VH8VL7
- binding result (human CXCR5 [5]): binds

B15: HFB2-VH10VL4 (antibody, V domains shown)
VH: QVQLVQSGAEVKKPGASVKVSCKASGFSLTSYGVSWVRQAPGQGLEWMGVIWGDGSTNYAQKLQGRVTMTKDTSTSTAYMELRSLRSDDTAVYYCARVVYWGQGTLVTVSS
VL: DIQMTQSPSSLSASVGDRVTITCRSSKSLLHSNGKTYLYWFQQKPGKAPKLLIYRMSNLASGVPSRFSGSGSGTDFTLTISSLQPEDFATYYCMQHLEYPYTFGGGTKVEIK
- binding result (human CXCR5 [5]): binds
